# Laboratory results: patent publication US20170313769A1 (Pfizer, published 2017)
# Substitutions are numbered along the chain they refer to.
# B1: CTI-AF15 (antibody, human IgG1, kappa, V domains shown)
# VH: QVQLVQSGAEVKKPGSSVKVSCKASGYTFSRYWMHWVRQAPGQGLEWMGHIDPSDSYTYYNQKFKGRVTITADESTSTAYMELSSLRSEDTAVYYCARWDYGNLLFEYWGQGTLVTVSS
# VL: DIQMTQSPSSLSASVGDRVTITCRTSQDISSYLNWYQQKPGKAFKLLIYSTSRLHSGVPSRFSGSGSGTDFTLTISSLQPEDFATYYCQQGIILPITFGGGTKVEIKR
# B2: CTI-AF5 (antibody, human IgG1, kappa, V domains shown)
# VH: B1 VH
# VL: B1 VL with S31N, S50T, H55R, I93V
# B3: CTI-AF20 (antibody, human IgG1, kappa, V domains shown)
# VH: B1 VH
# VL: B1 VL with S50T, H55R, I93V
# B4: CTI-AF27 (antibody, human IgG1, kappa, V domains shown)
# VH: B1 VH
# VL: B1 VL with S30D, S31N, Y32F, N34Q, Y49F, R53K
# B5: CTI-AF16 (antibody, human IgG1, kappa, V domains shown)
# VH: B1 VH
# VL: B1 VL with S31N, S50T, H55R
# B6: CTI-AF8 (antibody, human IgG1, kappa, V domains shown)
# VH: B1 VH
# VL: B1 VL with S30G, S31N, G91S, I92T, I96L
# B7: CTI-AF9 (antibody, human IgG1, kappa, V domains shown)
# VH: B1 VH
# VL: B1 VL with S31N, Y49F, G91S, I92T, I96L
# B8: CTI-AF14 (antibody, human IgG1, kappa, V domains shown)
# VH: B1 VH
# VL: B1 VL with S31N, Y49F
# B9: CTI-AF10 (antibody, human IgG1, kappa, V domains shown)
# VH: B1 VH
# VL: B1 VL with G91S, I92T, I96L
# B10: CTI-AF21 (antibody, human IgG1, kappa, V domains shown)
# VH: B1 VH
# VL: B1 VL with S30D, S31N, Y32F, N34Q, Y49F, R53K, I93V
# B11: CTI-AF4 (antibody, human IgG1, kappa, V domains shown)
# VH: B1 VH
# VL: B1 VL with I93V
# B12: CTI-AF23 (antibody, human IgG1, kappa, V domains shown)
# VH: B1 VH
# VL: B1 VL with S50T, H55R, G91S, I92T, I96L
# B13: humanized parent of CTI-AF1 before affinity maturation (antibody, V domains shown)
# VH: B1 VH
# VL: DIQMTQSPSSLSASVGDRVTITCRTSQDISNYLNWYQQKPGKAFKLLIYSTSRLHSGVPSRFSGSGSGTDFTLTISSLQPEDFATYYCQQGHTLPLTFGGGTKVEIK
# notes: no mutations were made in VH
# Target: T1, Human IFNβ (mature human interferon beta) (human, UniProt P01574 22-187)
# T1 sequence (P01574 22-187): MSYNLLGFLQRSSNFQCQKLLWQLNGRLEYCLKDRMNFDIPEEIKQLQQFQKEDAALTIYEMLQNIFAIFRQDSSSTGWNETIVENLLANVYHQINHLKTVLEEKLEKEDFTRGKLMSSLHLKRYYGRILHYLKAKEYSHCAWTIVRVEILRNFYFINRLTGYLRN
# Test: cell-based or functional assay
IC50 (pM) pSTAT1 Inhibition [pM],IC50 (pM) ISRE Neutralization [pM],Binder
80,,B1
10,,B2
20,,B3
70,,B4
,14,B5
,460,B6
,75,B7
30,,B8

# Target: T1, Human IFNβ (mature human interferon …)
# Test: Octet (BLI) response rank; method not described
row,Response rank (Octet) [rank],Binder
1,3,B1
2,5,B9
3,8,B3
4,11,B10
5,10,B4
6,2,B5
7,4,B11
8,6,B6
9,12,B7
10,7,B8
11,9,B12

# Target: T1, Human IFNβ (mature human interferon …)
# Test: SPR (affinity maturation); before the light chain mutations (parent antibody)
row,Kd [nM],Binder
1,25,B13

# Target: T1, Human IFNβ (mature human interferon …)
# Test: SPR, Biacore T200; antibody amine-coupled on CM5 chip, human IFNβ as analyte, 1:1 model
row,Kd [nM],Binder
1,0.335,B3
